Assay: soluble on expression in E. coli; label from the status in PepcDB or PDB records

Question: For “MARLTVHTLETAPEAAKARVEAVLQNNGFIPNLIGVLSNAPEALAFYQEVGKLNAANSLTAGEVEVIQIIAARTNQCGFCVAGHTKLATLKKLLSEQSVKAARALAAGEFDDAKLGALAAFTQAVMAKKGAVSDEELKAFFDAGYNQQQAVEVVMGVALATLCNYVNNLGQTEINP”, which “soluble on expression in E. coli” value is on record?
Answer: not soluble

Question: For “MARMNRPAPVEVTYKNMRFLITHNPTNATLNKFIEELKKYGVTTIVRVCEATYDTTLVEKEGIHVLDWPFDDGAPPSNQIVDDWLSLVKIKFREEPGCCIAVHSVAGLGRAPVLVALALIEGGMKYEDAVQFIRQKRRGAFNSKQLLYLEKYRPKMRLRFKDSNGHRNNCCIQ”, which “soluble on expression in E. coli” value is on record?
Answer: soluble

Question: Which “soluble on expression in E. coli” value does the source give for “MARNPRTTVRRILNSAPRSLLIQSVTIVALDPTDNNHGSHQPGSNGPSNSSTQADNFETETTADEERQKEDGVEDELEDEETTGFIDEDGEIRYPVDEVGNYEIDQEAETDESFYLDTQRDSSLCDERSQLCRSLSDQNLRTTFFLITTTNSKAAILRYLHFHNVSQDSILRKLLLNDSHLTLVEVCNLCAQNIELCKCEDMQEKCQLIFGDLKKWLEVILNSFANIMMKTKTTILEGYNSSSPINKGIFKKKLLSEMADNEMWMHFESSFDGIKVHKNGNQNIWPYSLLNLDLEDVHRASPQALILAALFIGFKNPTTKIHDRLTQWILLQMDEHVFFSEGVAWKADLTCANHDDPARRIVYNQCGLRSSGSCNFCLNQETECKINDEYTTLRENLTGSCPSTMNDGLRQRNQHSHFHKHVLYMHLCPHYSPKGNGICSRQNRWIFHQHLRFHLDFVRCPAKLHSVLVLRKHCIHGLYRLCIEPQSITDETLHLKQVLYHLARMTELYGSLFPLSTQWFEYFYHTIQRTLVPEIYNGLGMSIMRKMSALQEIKTEAAFRLHTNHQFRTEANLKMCYELGLLRRLKRISVVPTPPQYQQFCETGDVFLNVVYHDGIRYSNYCNKKTDDSNVTFIEYARVRFAKIIGMLLKENNTDLRFILKKYCNTNDHLIDISNKLYEEDVPQMHIQNWVDSVSKSSFGGRVTLTNTVVVVSADSIVGHAVVVKRNNNCVALPFSRRISLS” here?
Answer: not soluble

Question: For “MARRNDHTREELVALTLDRVKQFLDTHSYHELSLRKVATMIGYVPSTLVNVFGNYNLLLLHVVAQTLDELAQEAQQAVKSTTYPKDALYQLAYCYHDFAKRNPYRWQLIFEHNMNGEMLPEWQAQRINNMTSMLEDLLKVIAPLRSEQEVLQASRVLWSGVHGITILSVDDKFFANEPIDGNALINNLLNHYLANW”, which “soluble on expression in E. coli” value is on record?
Answer: not soluble

Question: For “MARTNLQFANLELFVDQLTGAMTFTRTSLLTAAQGALVTRFAEIDGRVKKNLDRVLAAFRQHRLGVHHFSSMTGYGHGDLGREVLDRVFAQVMGAEAALVRVQFVSGTHAIATALFGVLRPGDELISLAGPPYDTLEEVIGLRGQGQGSLKDFGIHYRELPLLASGEPDWGAIATCVQPQTRMVLIQRSCGYTWRPSLSLEDIGKMIQLIKSQNPDVVCFVDNCYGEFVETQEPPHVGADLIAGSLIKNPGGTIATAGGYLAGRADLIEQASYRLTAPGIGHEGGATFDQHRLLFQGLFLAPQMVGEALKCAHLLAYVFDELGYPVNPAPLSRRRDVIQAVQLGSPEKLIAFCRILQRYSPVGSYLDPVPAPMPGYADDLVMAGGTFIDGSTSELSADGPLRPPYIVFCQGGTHHTHMALILEALLEAQVFLEHHHHHH”, which “soluble on expression in E. coli” value is on record?
Answer: not soluble

Question: For “MARVRIVAKKNGPYLLEVDGKVQTALCRCGHSNNKPYCDGTHARVGFQADEKVAFEAEFAAALEHHHHHH”, which “soluble on expression in E. coli” value is on record?
Answer: not soluble

Question: With “MASETSQFGIETDSITLQRYVLQEQRKHADASGELTALLTNMLVAIKAIASATQKAGLAKLYGIAGATNVQGEEVKKLDVLSNELMINMLKSSYTTCLLVSEENDELIEVEEQRRGKYIVTFDPLDGSSNIDCLVSIGTIFGIYKKRGDGPATVDDVLKPGKEMVAAGYALYGSATMVVLSTGDGVNGFTLDPSIGEFILTHPNMKCKEKGSIYSLNEGYAQTWSKGFAEYIRTRKYPEAGKKAMGQRYVGSMVADVHRTILNGGIFLYPPTVSAPNGKLRLLYECNPMAYIIEQAGGLATTGKERILDIQPTQIHQRAPIILGSKLDVEEALEYLAKYDN” as the sequence, how does the “soluble on expression in E. coli” value read?
Answer: not soluble

Question: Which “soluble on expression in E. coli” value does the source give for “MASFARRAMSLAQIPSARISSGAASIGQRRCLAGAADHHGSTKVDFWKQPTNPGNWKEEHFVLISLSGWGLLFYSGYKLATGGKKEYTMSFIVTRKTFYGETSHSHALCFPF” here?
Answer: not soluble

Question: Which “soluble on expression in E. coli” value does the source give for “MASFSILSIFKIGVGPSSSHTIGPMEAGARFCESLKGILEQVVRVQITLHGSLALTGKGHLSDEAVLIGLHGIYANELEVTTKKALLHEALENKVLKLANQHHIPFDYAKDLIFDNKPLTRHQNALILKAFNSKNEVLKEETYYSVGGGFVYTEKELDNLSEEDGNESIAYDFSSAKELLELCQKHQKSIAEIVRLRENALKNHPDATMVKIYHAMLECYDNGANSKERYLPGSLKVTRLAPSIKTRLEKHPTSGKDPLALIDYISLYARAIAEENASGGKVVTAPTNGACAVVPSVLLYAKNHLFENLSQKAINDFLLTSAAIGYLYKKNASLSGAEAGCQAEIGVASSMAAGGLAHLCQATTQQVLIASEIAMEHHLGLTCDPVGGLVQIPCIERNVLGAIKAISASKLALEDEYKPKVSLDEVIATMYATGKDMNEKYKETSLGGLAKTLKC” here?
Answer: not soluble

Question: Which “soluble on expression in E. coli” value does the source give for “MASFVTSKRDFRARAHSNPLNDAEFLVPEDPLRFDWSPFIPDVGSHPIDYVDLGCGYGGLLCELSIAFPNKYMLGMEIRDRVASYCVTKLEELRRLNSKGYRNIGFIRTNCMKFLPFYFPPSSVEKFFICFPDPHFKKKKHRQRLVSLRFLSEAAYCLRPGGMIYIVTDVEELFAWMTNLFAQHPLFLTMDKELVKQQDVLLPYLLNHTDEAQRMKRRGQDTPYWNVFQRKTVFC” here?
Answer: not soluble

Question: Which “soluble on expression in E. coli” value does the source give for “MASIELRNVQTELAAKNLQFKVLTEKFLEQRKELFDAKKTDSNVEYVECLSEKLRVATERISDLEKETKEGKQVANEEIGRLEKLLREAQQKRDAKIDESYQTFLRIELLVANLGESTDPENEKRIKNLMPAAKTGIPPEGVLRLTINALDSAARESKKKTMAIESLTKQVDDANKLTEVYMKRLEELEDKHRFEEALTLKIQAMMIETTGQLEAQKKIIADLQKKNDDLMKEEEGEEDYEEEENYEVEEDFEDEEEYDEEGEEEDYE” here?
Answer: not soluble

Question: For “MASKIEQPRWASKDSAAGAASTPDEKIVLEFMDALTSNDAAKLIEYFAEDTMYQNMPLPPAYGRDAVEQTLAGLFTVMSIDAVETFHIGSSNGLVYTERVDVLRALPTGKSYNLSILGVFQLTEGKITGWRDYFDLREFEEAVDLPLRG”, which “soluble on expression in E. coli” value is on record?
Answer: soluble

Question: With MASKPEKRVASSVFITLAPPRRDV as the sequence, how does the “soluble on expression in E. coli” value read?
Answer: soluble

Question: Which “soluble on expression in E. coli” value does the source give for “MASKRLGKQTVMLQNPPRITSTASIVGPKEGKGPLRLFFDNIIEDEMWGEKSWEKAESKLIRETFSKVLQKGNKTSQEIDYVISGDLLNQCIAANFGLRESDVPFFGVYGACSTIAESMSIGAMLVDGGFADNVVCITSSHFCSAEKQFRFPLELGTQRPPSAQWTVTGSGGVLISNDGSGPYITHITTGKIVDMGIKDANNMGAAMAPAAVDTIVTHFKDTGFTPESYDLILTGDLGAIGREICVELTREQGFNIENIYNDCGLMIYDREKQDTHAGGSGCGCAATVFAGFVYKKLMDGTLKNVLFVATGALLSPVSTQQGESIPSIAHAISITTSPER” here?
Answer: soluble

Question: For “MASLKVPSNVPLPEDDAEQLHKAFSGWGTNEKLIISILAHRNAAQRSLIRSVYAATYNEDLLKALDKELSSDFERAVMLWTLDPPERDAYLAKESTKMFTKNNWVLVEIACTRPALELIKVKQAYQARYKKSIEEDVAQHTSGDLRKLLLPLVSTFRYEGDDVNMMLARSEAKILHEKVSEKSYSDDDFIRILTTRSKAQLGATLNHYNNEYGNAINKNLKEESDDNDYMKLLRAVITCLTYPEKHFEKVLRLSINKMGTDEWGLTRVVTTRTEVDMERIKEEYQRRNSIPLDRAIAKDTSGDYEDMLVALLGHGDA”, which “soluble on expression in E. coli” value is on record?
Answer: soluble

Question: Which “soluble on expression in E. coli” value does the source give for “MASLLDKAKDFVADKLTAIPKPEGSVTDVDLKDVNRDSVEYLAKVSVTNPYSHSIPICEISFTFHSAGREIGKGKIPDPGSLKAKDMTALDIPVVVSYSILFNLARDVGVDWDIDYELQIGLTIDLPVVGEFTIPISSKGEIKLPTFKDFF” here?
Answer: soluble
